Source: publication PMC3615143

Target: Glut1 (UniProt P11166)
Assay: Flag IP, HA-TXNIP blot
Conditions: reference: HA-TXNIP wild type, 2DG-treated cells; sites S308

- binding against the reference: stronger
Substance: TXNIP (from UniProt Q9H3M7) HA-TXNIP S308A, 2DG-treated cells
